Laboratory results: article PMC5645467, “Three-dimensional context rather than NLS amino acid sequence determines importin α subtype specificity for RCC1” (Nature Communications, 2017)

Columns and labels:
[1] = target: ΔIBB-importin α3 (as used for ITC) (human, UniProt O00629 1-521, Limits not given; taken from the ΔIBB-importin α3 entity of PDB 4UAE (Met + 420 residues, starting VQNTS), which fits the expected complex MW of ~91.2 kDa. A construct running to 521 is possible.); assay: ITC; nano-ITC, 20 °C; GST-RCC1 (300 µM) injected in 2.0 µl increments into 195 µl of ΔIBB-importin α3 or α1 (100 µM); 20 mM Tris-HCl pH 8.0, 150 mM NaCl, 5 mM BME, 0.1 mM PMSF; single set of binding sites model; triplicate; details: both partners purified
[2] = target: untagged ΔIBB-importin α3 (co-expressed with GST-RCC1) (human, UniProt O00629 1-521, Limits not given; taken from the ΔIBB-importin α3 entity of PDB 4UAE, which fits the expected complex MW of ~91.2 kDa. The 5TBK entity lists the full-length sequence although the IBB was deleted.); assay: SAXS; purified importin α3:RCC1 complex in GF buffer, 3.5–7.5 mg ml^-1, physiological salt; details: both partners purified
Sequence of untagged ΔIBB-importin α3 (co-expressed with GST-RCC1) (O00629 68-487, stated change not applied): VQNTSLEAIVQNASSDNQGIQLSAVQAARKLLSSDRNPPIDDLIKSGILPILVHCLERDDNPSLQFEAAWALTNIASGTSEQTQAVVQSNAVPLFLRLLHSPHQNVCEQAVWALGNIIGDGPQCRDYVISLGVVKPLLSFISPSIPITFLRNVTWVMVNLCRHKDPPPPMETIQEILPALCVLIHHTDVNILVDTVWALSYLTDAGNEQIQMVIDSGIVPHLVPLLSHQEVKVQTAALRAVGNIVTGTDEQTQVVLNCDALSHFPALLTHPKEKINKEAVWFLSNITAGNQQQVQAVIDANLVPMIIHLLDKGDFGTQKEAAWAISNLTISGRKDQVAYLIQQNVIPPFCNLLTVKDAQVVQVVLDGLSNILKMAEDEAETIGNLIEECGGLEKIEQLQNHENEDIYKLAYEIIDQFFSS

Sequence of ΔIBB-importin α3 (as used for ITC) (O00629 68-487, stated change not applied): as above

Row | stoichiometry N [1] | stoichiometry N [2] | Binder
1 | < 1 |  | GST-RCC1 (full-length human RCC1, wild type) (natural protein, UniProt P18754 1-421, looked up, human RCC1, predominant isoform RCC1α, synthetic gene (GenScript); β-propeller printed as residues 30–421; Used in the syringe for ITC (methods say GST-RCC1); also called full length GST-RCC1; WT GST-RCC1; source: E. coli BL21(DE3) AI or BL21(DE3), pGEX-6P, glutathione resin; not shown: GST, N-terminal, kept) MSPKRIAKRRSPPADAIPKSKKVKVSHRSHSTEPGLVLTLGQGDVGQLGLGENVMERKKPALVSIPEDVVQAEAGGMHTVCLSKSGQVYSFGCNDEGALGRDTSVEGSEMVPGKVELQEKVVQVSAGDSHTAALTDDGRVFLWGSFRDNNGVIGLLEPMKKSMVPVQVQLDVPVVKVASGNDHLVMLTADGDLYTLGCGEQGQLGRVPELFANRGGRQGLERLLVPKCVMLKSRGSRGHVRFQDAFCGAYFTFAISHEGHVYGFGLSNYHQLGTPGTESCFIPQNLTSFKNSTKSWVGFSGGQHHTVCMDSEGKAYSLGRAEYGRLGLGEGAEEKSIPTLISRLPAVSSVACGASVGYAVTKDGRVFAWGMGTNYQLGTGQDEDAWSPVEMMGKQLENRVVLSVSSGGQHTVLLVKDKEQS
2 |  | 1 | RCC1 (human, cleaved from GST, in the purified importin α3:RCC1 complex) (natural protein, UniProt P18754 1-421, looked up, human RCC1, predominant isoform RCC1α, synthetic gene; also called RCC1α; human RCC1; source: E. coli BL21-AI, co-expressed with ΔIBB-importin α3, cleaved off glutathione beads with PreScission Protease, SEC; not shown: GST, N-terminal, cleaved) MSPKRIAKRRSPPADAIPKSKKVKVSHRSHSTEPGLVLTLGQGDVGQLGLGENVMERKKPALVSIPEDVVQAEAGGMHTVCLSKSGQVYSFGCNDEGALGRDTSVEGSEMVPGKVELQEKVVQVSAGDSHTAALTDDGRVFLWGSFRDNNGVIGLLEPMKKSMVPVQVQLDVPVVKVASGNDHLVMLTADGDLYTLGCGEQGQLGRVPELFANRGGRQGLERLLVPKCVMLKSRGSRGHVRFQDAFCGAYFTFAISHEGHVYGFGLSNYHQLGTPGTESCFIPQNLTSFKNSTKSWVGFSGGQHHTVCMDSEGKAYSLGRAEYGRLGLGEGAEEKSIPTLISRLPAVSSVACGASVGYAVTKDGRVFAWGMGTNYQLGTGQDEDAWSPVEMMGKQLENRVVLSVSSGGQHTVLLVKDKEQS
